Here are results for one substance from PMC8431494.

In the assay the target is BST-2 with N-terminal SmBiT (UniProt Q10589). Put plainly: split reporter (BiFC, NanoBiT); HEK293T cells in 96-well plates co-transfected 1:1 with plasmids for the Vpu and BST-2 LgBiT/SmBiT fusions; Nano-Glo Live Cell Substrate added, luminescence read in live cells; negative control HaloTag with SmBiT.
Chain of UniProt Q10589 (Q10589 1-161): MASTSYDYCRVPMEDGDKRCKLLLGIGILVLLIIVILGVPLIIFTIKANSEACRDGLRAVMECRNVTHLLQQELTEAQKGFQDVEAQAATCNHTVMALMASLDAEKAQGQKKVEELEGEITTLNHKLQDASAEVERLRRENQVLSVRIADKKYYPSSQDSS

Chain of Vpu with C-terminal LgBiT (P05919 whole entry): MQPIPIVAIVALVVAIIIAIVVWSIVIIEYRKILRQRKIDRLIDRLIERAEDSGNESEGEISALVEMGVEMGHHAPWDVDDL

As to “Vpu with C-terminal LgBiT (from UniProt P05919 1-82) (natural protein)”, the fold luminescence over control 15 min after adding substrate stood at 100 fold; the fold luminescence over control (Vpu with C-terminal LgBiT and HaloTag with SmBiT) was 95 fold.
